Measured values reported in article PMC8313811 (Current Research in Structural Biology, 2021).

B1: M. tuberculosis EspB (residues 2-358), mature form (domain or fragment)
chain: TQSQTVTVDQQEILNRANEVEAPMADPPTDVPITPCELTAAKNAAQQLVLSADNMREYLAAGAKERQRLATSLRNAAKAYGEVDEEAATALDNDGEGTVQAESAGAVGGDSSAELTDTPRVATAGEPNFMDLKEAARKLETGDQGASLAHFADGWNTFNLTLQGDVKRFRGFDNWEGDAATACEASLDQQRQWILHMAKLSAAMAKQAQYVAQLHVWARREHPTYEDIVGLERLYAENPSARDQILPVYAEYQQRSEKVLTEYNNKAALEPVNPPKPPPAIKIDPPPPPQEQGLIPGFLMPPSDGSGVTPGTGMPAAPMVPPTGSPGGGLPADTAAQLTSAGREAAALSGDVAVKAA
B2: M. marinum EspB2-286 (domain or fragment)
chain: SQPQTVTVDQQEILNRADEVEAPMATPPTDVPQAPSGLTAANNAAEQLAVSADNVRLYLQAGERERQRLATSLRNAAAAYGEVEDESATALDNDGNGEVDAQSAGGAGAGQTESLEETPKVAAAGESDFTDLKTAATKLESGDQGTSMVNFADGWNNFNLSLQRDIKRFRIFENWEGDAATACEASMDQQKEWILHMAKLSASLAKQANFMAQLQLWARRGHPTLADIVELERLAKDPDYQEQAIKLYAEYQETSEKVLSEYNTKADLEPVNPPKPPAAIKIDPP
B3: M. tuberculosis EspB2-287 (domain or fragment)
chain: TQSQTVTVDQQEILNRANEVEAPMADPPTDVPITPCELTAAKNAAQQLVLSADNMREYLAAGAKERQRLATSLRNAAKAYGEVDEEAATALDNDGEGTVQAESAGAVGGDSSAELTDTPRVATAGEPNFMDLKEAARKLETGDQGASLAHFADGWNTFNLTLQGDVKRFRGFDNWEGDAATACEASLDQQRQWILHMAKLSAAMAKQAQYVAQLHVWARREHPTYEDIVGLERLYAENPSARDQILPVYAEYQQRSEKVLTEYNNKAALEPVNPPKPPPAIKIDPP

Experiments:
[1] = molecular target: the molecule itself; test: SEC
[2] = molecular target: the molecule itself; test: cryo-EM structure

Protein	binding result [1]	stoichiometry N [2]
B1	binds	
B2		7
B3		7
